{
  "source": "IntAct's records for PubMed 20561531",
  "parents": {"B1": {"name": "PRKC apoptosis WT1 regulator protein (Homo sapiens), Q96IZ0 (parent)", "chain": "MATGGYRTSSGLGGSTTDFLEEWKAKREKMRAKQNPPGPAPPGGGSSDAAGKPPAGALGTPAAAAANELNNNLPGGAPAAPAVPGPGGVNCAVGSAMLTRAAPGPRRSEDEPPAASASAAPPPQRDEEEPDGVPEKGKSSGPSARKGKGQIEKRKLREKRRSTGVVNIPAAECLDEYEDDEAGQKERKREDAITQQNTIQNEAVNLLDPGSSYLLQEPPRTVSGRYKSTTSVSEEDVSSRYSRTDRSGFPRYNRDANVSGTLVSSSTLEKKIEDLEKEVVRERQENLRLVRLMQDKEEMIGKLKEEIDLLNRDLDDIEDENEQLKQENKTLLKVVGQLTR"}, "B2": {"name": "SPRY domain-containing SOCS box protein 2 (Mus musculus), O88838 (parent)", "chain": "MGQTALARGSSSTPTSQALYSDFSPPEGLEELLSAPPPDLVAQRHHGWNPKDCSENIDVKEGGLCFERRPVAQSTDGVRGKRGYSRGLHAWEISWPLEQRGTHAVVGVATALAPLQADHYAALLGSNSESWGWDIGRGKLYHQSKGLEAPQYPAGPQGEQLVVPERLLVVLDMEEGTLGYSIGGTYLGPAFRGLKGRTLYPSVSAVWGQCQVRIRYMGERRVEEPQSLLHLSRLCVRHALGDTRLGQISTLPLPPAMKRYLLYK", "partner": "B1 chain"}, "B3": {"name": "PRKC apoptosis WT1 regulator protein (Homo sapiens), Q96IZ0 (parent)", "chain": "B1 chain", "partner": "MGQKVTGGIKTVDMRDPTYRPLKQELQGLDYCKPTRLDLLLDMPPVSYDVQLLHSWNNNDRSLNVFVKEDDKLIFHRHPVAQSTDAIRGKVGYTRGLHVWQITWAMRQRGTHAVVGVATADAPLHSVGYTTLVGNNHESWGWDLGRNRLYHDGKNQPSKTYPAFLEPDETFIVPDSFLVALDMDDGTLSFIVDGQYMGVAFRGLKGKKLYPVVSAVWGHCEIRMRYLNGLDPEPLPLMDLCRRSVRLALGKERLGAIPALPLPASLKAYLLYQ"}},
  "data": [
    {"variants_of": "B1", "settings": "with spsb2_mouse Spsb2, O88838", "values": [
      {"variant": "N72A", "effect of a mutation on the interaction": "disrupting interaction"}
    ]},
    {"variants_of": "B1", "settings": "with spsb4_mouse Spsb4, Q8R5B6", "values": [
      {"variant": "N72A", "effect of a mutation on the interaction": "disrupting interaction"}
    ]},
    {"variants_of": "B1", "settings": "with spsb2_mouse Spsb2, O88838", "remark": "another data set of the same source", "values": [
      {"variant": "N71A", "effect of a mutation on the interaction": "disrupting interaction"},
      {"variant": "E68D", "effect of a mutation on the interaction": "increasing interaction"},
      {"variant": "N70A", "effect of a mutation on the interaction": "disrupting interaction"},
      {"variant": "L69I", "effect of a mutation on the interaction": "increasing interaction"},
      {"variant": "E68D;L69I", "effect of a mutation on the interaction": "increasing interaction"}
    ]},
    {"variants_of": "B1", "settings": "with spsb4_mouse Spsb4, Q8R5B6", "remark": "another data set of the same source", "values": [
      {"variant": "N71A", "effect of a mutation on the interaction": "disrupting interaction"},
      {"variant": "E68D", "effect of a mutation on the interaction": "increasing interaction"},
      {"variant": "N70A", "effect of a mutation on the interaction": "disrupting interaction"},
      {"variant": "L69I", "effect of a mutation on the interaction": "increasing interaction"},
      {"variant": "E68D;L69I", "effect of a mutation on the interaction": "increasing interaction"}
    ]},
    {"variants_of": "B2", "settings": "with pawr_human PAWR, Q96IZ0", "values": [
      {"variant": "Y120A", "effect of a mutation on the interaction": "disrupting interaction"},
      {"variant": "L123A;L124A;G125A", "effect of a mutation on the interaction": "disrupting interaction"},
      {"variant": "S126A;N127A;S128A", "effect of a mutation on the interaction": "disrupting interaction"},
      {"variant": "V206A", "effect of a mutation on the interaction": "disrupting interaction"}
    ]},
    {"variants_of": "B3", "settings": "with spsb1_mouse Spsb1, Q9D5L7", "values": [
      {"variant": "E68D;L69I", "effect of a mutation on the interaction": "increasing interaction"},
      {"variant": "N70A", "effect of a mutation on the interaction": "disrupting interaction"},
      {"variant": "N71A", "effect of a mutation on the interaction": "disrupting interaction"}
    ]}
  ]
}
